Reference: patent US20090143308A1

Key:
Assay in all cases: cell-based or functional assay
[1] = target: Candida albicans Cdr1p as expressed in S. cerevisiae AD1002 (CDR1 of plasmid pKEN1002) (Candida albicans) (UniProt P43071)
[2] = target: S. cerevisiae plasma membrane H+-ATPase (Pma1p) (Saccharomyces cerevisiae) (UniProt P05030)
[3] = target: Saccharomyces cerevisiae Pdr5p (over-expressed in strain AD124567) (Saccharomyces cerevisiae) (UniProt P33302)
Chain of Saccharomyces cerevisiae Pdr5p (over-expressed in strain AD124567) (Saccharomyces cerevisiae) (P33302 whole entry): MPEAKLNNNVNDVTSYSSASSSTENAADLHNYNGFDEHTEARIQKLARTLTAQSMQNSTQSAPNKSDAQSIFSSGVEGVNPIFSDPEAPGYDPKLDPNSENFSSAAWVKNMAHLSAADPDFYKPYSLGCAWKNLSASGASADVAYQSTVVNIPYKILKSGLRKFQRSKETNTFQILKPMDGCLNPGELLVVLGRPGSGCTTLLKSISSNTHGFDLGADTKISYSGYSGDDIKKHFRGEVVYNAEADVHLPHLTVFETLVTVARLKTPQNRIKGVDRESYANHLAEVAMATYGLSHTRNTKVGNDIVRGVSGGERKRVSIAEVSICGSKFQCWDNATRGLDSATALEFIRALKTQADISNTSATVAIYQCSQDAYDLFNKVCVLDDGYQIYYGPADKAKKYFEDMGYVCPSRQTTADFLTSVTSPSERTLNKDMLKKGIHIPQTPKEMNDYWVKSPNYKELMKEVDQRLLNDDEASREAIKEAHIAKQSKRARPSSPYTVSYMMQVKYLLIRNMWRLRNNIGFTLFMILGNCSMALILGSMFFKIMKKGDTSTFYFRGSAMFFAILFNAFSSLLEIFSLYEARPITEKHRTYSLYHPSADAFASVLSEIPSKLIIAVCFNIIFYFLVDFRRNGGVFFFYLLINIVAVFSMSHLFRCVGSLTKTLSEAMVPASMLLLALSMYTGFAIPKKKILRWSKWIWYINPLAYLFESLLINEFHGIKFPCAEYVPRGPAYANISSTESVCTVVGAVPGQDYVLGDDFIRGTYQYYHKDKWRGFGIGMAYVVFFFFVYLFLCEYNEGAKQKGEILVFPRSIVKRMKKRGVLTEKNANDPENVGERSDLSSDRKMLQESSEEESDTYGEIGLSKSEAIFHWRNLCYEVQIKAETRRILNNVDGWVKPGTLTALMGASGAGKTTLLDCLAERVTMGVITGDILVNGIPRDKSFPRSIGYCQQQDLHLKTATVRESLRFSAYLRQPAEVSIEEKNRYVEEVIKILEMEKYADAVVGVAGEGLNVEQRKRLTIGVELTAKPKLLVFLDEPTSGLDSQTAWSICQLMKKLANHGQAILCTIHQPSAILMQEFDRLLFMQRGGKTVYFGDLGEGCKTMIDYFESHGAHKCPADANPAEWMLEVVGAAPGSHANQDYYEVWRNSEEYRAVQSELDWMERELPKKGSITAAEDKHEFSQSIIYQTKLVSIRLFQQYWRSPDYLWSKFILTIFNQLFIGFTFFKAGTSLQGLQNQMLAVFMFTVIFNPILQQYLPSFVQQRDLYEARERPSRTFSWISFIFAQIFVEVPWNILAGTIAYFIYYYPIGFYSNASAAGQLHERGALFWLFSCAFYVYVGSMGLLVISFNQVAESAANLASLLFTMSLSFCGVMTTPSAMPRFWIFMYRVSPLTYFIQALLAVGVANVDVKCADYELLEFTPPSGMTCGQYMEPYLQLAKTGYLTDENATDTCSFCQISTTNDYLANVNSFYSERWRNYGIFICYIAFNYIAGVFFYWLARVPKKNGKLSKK

Chain of Candida albicans Cdr1p as expressed in S. cerevisiae AD1002 (CDR1 of plasmid pKEN1002) (Candida albicans) (P43071 whole entry): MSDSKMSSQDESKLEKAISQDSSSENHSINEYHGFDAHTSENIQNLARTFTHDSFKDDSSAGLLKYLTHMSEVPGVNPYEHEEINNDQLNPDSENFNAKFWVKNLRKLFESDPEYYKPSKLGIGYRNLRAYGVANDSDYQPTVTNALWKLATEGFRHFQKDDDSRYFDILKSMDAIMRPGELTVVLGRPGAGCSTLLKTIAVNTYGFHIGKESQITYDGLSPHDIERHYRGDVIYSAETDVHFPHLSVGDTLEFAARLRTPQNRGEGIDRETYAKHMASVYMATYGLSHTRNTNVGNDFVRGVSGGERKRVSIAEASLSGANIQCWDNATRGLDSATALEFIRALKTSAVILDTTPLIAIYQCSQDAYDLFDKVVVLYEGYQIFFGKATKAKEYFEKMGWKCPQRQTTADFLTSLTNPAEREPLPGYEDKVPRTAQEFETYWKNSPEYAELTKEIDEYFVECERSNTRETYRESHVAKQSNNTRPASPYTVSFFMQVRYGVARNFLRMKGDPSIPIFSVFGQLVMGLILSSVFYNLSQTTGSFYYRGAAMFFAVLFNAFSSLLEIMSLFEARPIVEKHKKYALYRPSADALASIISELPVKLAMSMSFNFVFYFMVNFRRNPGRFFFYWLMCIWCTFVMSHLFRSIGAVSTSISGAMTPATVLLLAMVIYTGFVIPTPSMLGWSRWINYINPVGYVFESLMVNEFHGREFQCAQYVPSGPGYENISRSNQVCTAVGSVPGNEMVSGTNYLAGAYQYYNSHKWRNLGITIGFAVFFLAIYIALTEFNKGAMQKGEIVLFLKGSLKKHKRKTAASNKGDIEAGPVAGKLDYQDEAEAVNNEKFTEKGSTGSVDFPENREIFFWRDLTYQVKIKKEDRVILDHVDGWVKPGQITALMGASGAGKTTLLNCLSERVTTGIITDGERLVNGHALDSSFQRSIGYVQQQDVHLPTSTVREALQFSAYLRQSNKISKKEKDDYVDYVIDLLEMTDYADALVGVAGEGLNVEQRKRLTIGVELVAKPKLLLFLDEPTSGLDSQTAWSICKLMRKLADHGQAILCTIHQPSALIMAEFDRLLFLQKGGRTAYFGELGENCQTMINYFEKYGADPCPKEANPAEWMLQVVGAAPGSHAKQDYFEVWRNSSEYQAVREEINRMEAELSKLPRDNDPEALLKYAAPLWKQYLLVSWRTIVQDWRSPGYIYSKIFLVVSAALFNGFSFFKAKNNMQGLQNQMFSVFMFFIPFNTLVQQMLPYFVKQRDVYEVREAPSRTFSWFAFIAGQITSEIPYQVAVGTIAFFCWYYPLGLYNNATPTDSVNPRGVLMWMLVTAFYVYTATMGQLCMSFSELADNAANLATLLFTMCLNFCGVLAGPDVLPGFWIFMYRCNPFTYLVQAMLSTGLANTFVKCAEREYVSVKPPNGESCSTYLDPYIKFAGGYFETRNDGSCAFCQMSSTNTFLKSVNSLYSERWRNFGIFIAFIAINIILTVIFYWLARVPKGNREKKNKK
Chain of S. cerevisiae plasma membrane H+-ATPase (Pma1p) (Saccharomyces cerevisiae) (P05030 whole entry): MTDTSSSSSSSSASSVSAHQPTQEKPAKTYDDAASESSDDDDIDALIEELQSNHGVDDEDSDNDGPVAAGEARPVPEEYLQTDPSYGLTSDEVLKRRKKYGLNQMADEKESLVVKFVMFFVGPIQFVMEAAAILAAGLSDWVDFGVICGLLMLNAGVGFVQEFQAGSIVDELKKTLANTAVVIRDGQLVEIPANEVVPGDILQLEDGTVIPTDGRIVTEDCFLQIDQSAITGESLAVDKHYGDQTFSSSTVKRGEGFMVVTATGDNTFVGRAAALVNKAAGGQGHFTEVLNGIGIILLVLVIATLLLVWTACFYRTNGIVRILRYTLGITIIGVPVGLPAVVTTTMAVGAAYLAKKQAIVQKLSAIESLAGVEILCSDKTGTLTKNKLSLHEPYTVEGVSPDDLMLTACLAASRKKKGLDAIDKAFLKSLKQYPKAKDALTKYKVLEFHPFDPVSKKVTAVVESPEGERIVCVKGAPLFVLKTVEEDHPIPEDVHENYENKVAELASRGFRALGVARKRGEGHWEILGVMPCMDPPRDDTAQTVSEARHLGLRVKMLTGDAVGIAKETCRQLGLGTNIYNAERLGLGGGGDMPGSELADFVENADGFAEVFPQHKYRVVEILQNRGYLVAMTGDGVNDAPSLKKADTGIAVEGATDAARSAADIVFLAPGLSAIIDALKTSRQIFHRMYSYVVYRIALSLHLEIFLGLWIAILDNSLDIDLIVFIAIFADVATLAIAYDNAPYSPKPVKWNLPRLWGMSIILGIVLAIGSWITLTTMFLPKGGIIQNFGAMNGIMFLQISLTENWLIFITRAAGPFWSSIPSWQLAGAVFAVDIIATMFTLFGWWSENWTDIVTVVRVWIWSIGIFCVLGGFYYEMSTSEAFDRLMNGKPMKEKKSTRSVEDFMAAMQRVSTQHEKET

Work on “KN20 (D-NH2-asparagine-tryptophan-tryptophan-lysine-valine-arginine-arginine-arginine-CONH2 with a single Mtr substituent) (peptide)” yielded a fold higher inhibitory concentration for Cdr1p ATPase than for Pdr5p ATPase [1] of 2.7 fold, an inhibition of oligomycin sensitive ATPase activity of AD1002 plasma membranes (I50) [1] of 8 µM and an inhibition of S. cerevisiae plasma membrane H+-ATPase (I50) [2] of 10 µM. For the same substance, the inhibition of oligomycin sensitive ATPase activity of plasma membranes from the AD124567 yeast strain overexpressing Pdr5p (I50) [3] was 3 µM.
